Measurements published in the Human Domainome abundance scans (Beltran et al. 2025).

B1: Storkhead-box protein 2, residues 64 to 141; numbered along this chain, Q9P2F5 (parent)
chain: SPISQSQFIPLGEILCLAISAMNSARKPVTQEALMEHLTTCFPGVPTPSQEILRHTLNTLVRERKIYPTPDGYFIVTP

Variants of: B1
Assay: abundance fitness (aPCA) (normalised: wild type 0, dead -1); higher = more abundant; growth selection in yeast, the domain comes from the species named
Conditions: Homo sapiens

Abundance fitness of substitutions, site by site:
L57: A -0.576 | H -1.1 | T -0.193 | K -0.953 | W -0.269 | C -0.202 | G -1.01 | S -0.799 | D -0.793 | I -0.04 | M -0.066 | F -0.306 | P -1.22 | Q -0.924 | R -1.11 | E -0.784
L60: N -0.927 | H -0.719 | I -0.384 | P -1.07 | G -0.706 | E -0.835 | F -0.401 | T -0.87 | R -1.07 | W -0.525 | S -0.828 | C -0.107 | A -0.213 | M -0.126 | Q -0.342 | Y -0.666 | V -0.587
T59: D -0.016 | S 0.104 | E 0.049 | R -0.001 | H 0.049 | M -0.023 | F 0.018 | K -0.047 | L 0.067 | P -0.921 | G 0.015 | A 0.017 | C 0.122 | N -0.087 | I 0.029 | W 0.062 | Q -0.031 | V 0.035
R64: S -0.021 | G 0.031 | E 0.112 | M -0.138 | I -0.619 | Q -0.043 | K 0.061 | H 0.039 | C -0.128 | L -0.124 | D -0.029 | A -0.029 | P -1.09 | F -0.286 | N -0.043
V61: N -0.432 | A 0.029 | Y -0.208 | S -0.008 | L -0.05 | D -0.186 | H -0.122 | Q -0.013 | K -0.146 | M 0.052 | E -0.028 | P -1.05 | I -0.014 | F -0.166 | T 0.019 | C 0.04
H55: S -0.005 | T 0.065 | L -0.088 | V -0.035 | P -0.223 | E 0.028 | R -0.055 | N 0.109 | K 0.007 | G 0.06 | I -0.103 | W -0.087 | C -0.033 | D 0.07 | F -0.057 | A 0.007 | Y -0.181
R62: G -0.008 | Y 0.076 | A 0.049 | L -0.037 | H -0.051 | W -0.081 | P -0.944 | K -0.109 | T 0.053 | I 0.006 | D -0.05 | C -0.047 | E 0.017 | M 0.045
R54: S 0.015 | V -0.012 | Q 0.066 | Y -0.117 | W -0.285
N58: W -0.093 | K -0.071 | Y -0.203 | I -0.041 | D -0.005 | A 0.033 | V 0.002 | L -0.025 | Q -0.03 | S -0.03 | P -0.678 | G 0 | H 0.017 | E 0.001 | R -0.016 | T -0.018 | C -0.052 | F -0.172
E63: P -1.2 | T -0.049 | R -0.015 | A -0.019 | V -0.049 | I -0.234 | K 0.011 | G -0.054 | C -0.043 | Y -0.033 | H -0.006 | D -0.004 | M -0.051 | W -0.075 | S -0.018 | N -0.028
T56: A -0.046 | G -0.051 | S -0.005 | Q -0.045 | D -0.069 | E -0.087 | W -0.022 | K -0.052 | L 0.054 | P -1.03 | V -0.042 | F -0.036 | C -0.056 | Y -0.26 | M 0.058
